Assay results published in patent publication US20220119492A1 (MEDIKINE, published 2022).
Primed or numbered codes have the meaning given here. Ends that are not written are not given here. PEG10 = NCCOCCOCCOCCOCCOCCOCCOCCOCCOCCOCCC(=O)O; PEG20′ = not defined here; PEG4′ = not defined here

T1: hu-IL-2R (human, UniProt P14784 27-551; P31785 23-369)
T1 sequence (looked up) 1: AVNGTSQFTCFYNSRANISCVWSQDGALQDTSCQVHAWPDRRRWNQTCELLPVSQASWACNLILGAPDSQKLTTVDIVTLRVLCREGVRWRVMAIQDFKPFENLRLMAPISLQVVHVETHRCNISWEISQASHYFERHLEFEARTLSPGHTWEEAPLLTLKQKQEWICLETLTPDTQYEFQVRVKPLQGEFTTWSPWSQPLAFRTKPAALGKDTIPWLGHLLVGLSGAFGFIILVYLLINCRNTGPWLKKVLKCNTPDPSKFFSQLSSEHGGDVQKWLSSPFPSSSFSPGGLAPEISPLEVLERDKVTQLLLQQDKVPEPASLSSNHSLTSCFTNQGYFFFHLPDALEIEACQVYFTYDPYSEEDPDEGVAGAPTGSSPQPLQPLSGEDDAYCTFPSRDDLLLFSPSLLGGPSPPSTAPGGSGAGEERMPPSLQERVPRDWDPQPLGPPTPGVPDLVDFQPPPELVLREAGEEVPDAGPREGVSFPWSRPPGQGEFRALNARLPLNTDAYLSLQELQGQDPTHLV
T1 sequence (looked up) 2: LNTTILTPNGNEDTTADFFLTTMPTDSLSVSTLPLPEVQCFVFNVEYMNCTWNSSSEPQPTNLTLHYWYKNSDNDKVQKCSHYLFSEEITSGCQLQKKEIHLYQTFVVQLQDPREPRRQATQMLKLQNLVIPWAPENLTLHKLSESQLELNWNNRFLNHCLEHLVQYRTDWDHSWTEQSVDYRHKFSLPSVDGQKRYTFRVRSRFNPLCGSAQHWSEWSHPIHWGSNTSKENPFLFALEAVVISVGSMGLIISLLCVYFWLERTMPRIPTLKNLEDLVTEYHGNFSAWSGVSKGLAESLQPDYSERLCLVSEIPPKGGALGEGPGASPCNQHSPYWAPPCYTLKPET

T2: human IL-2Rβ (CD122 protein, Fc Tag) (27-239) (human, UniProt P14784 27-239)
T2 construct: range 27-239; Bought protein; also called hu-IL-2Rβ subunit; IL-2Rβ subunit; not shown: Fc tag of the bought protein
T2 sequence (looked up): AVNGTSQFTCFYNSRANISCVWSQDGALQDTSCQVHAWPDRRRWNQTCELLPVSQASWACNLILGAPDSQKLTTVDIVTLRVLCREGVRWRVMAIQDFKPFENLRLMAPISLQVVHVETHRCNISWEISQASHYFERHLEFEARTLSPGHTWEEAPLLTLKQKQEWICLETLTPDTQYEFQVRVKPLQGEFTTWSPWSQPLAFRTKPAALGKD

T3: human IL-2Rγc (CD132 protein, Fc Tag) (23-254) (human, UniProt P31785 23-254)
T3 construct: range 23-254; Bought protein; also called hu-IL-2Rγc subunit; IL-2Rγc subunit; not shown: Fc tag of the bought protein
T3 sequence (looked up): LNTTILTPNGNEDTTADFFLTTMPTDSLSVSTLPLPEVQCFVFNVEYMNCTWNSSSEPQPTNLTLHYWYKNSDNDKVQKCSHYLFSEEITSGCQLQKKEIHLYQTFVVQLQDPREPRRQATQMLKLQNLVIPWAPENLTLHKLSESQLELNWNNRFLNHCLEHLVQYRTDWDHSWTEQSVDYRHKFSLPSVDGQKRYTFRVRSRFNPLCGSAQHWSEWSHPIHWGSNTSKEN


What was measured:
hu-IL-2R = target: T1, hu-IL-2R; assay: cell-based or functional assay
[1] = target: T2, human IL-2Rβ (CD122 protein, Fc Tag) …; assay: IL-2Rβ IC50, assay not named in Example 29
[2] = target: T3, human IL-2Rγc (CD132 protein, Fc Tag) …; assay: IL-2Rγc IC50, assay not named in Example 29
[3] = target: T4, cynomolgus monkey Rγc subunit (cynomolgus monkey); assay: competition ELISA, peptide tracer
T4 construct: also called cyno-IL-2Rγc subunit
Method: (§1) Binding of Fc fusions to IL-2Rβ and IL-2Rγc were measured using a competition binding ELISA with biotinylated peptide/NeutrAvidin-HRP tracer. ELISA plate was prepared as described in Example 27.
(§2) The plate was washed 4 times with PT (1×PBS, 0.05% Tween® 20) buffer. Fifty (50) μL of IL-2R ligands serially diluted in PBT was added to appropriate wells then incubated at 4° C. for 1 hr.
(§3) At the appropriate time, the precomplexed bn-peptide/NA-HRP tracer was diluted to 2-fold its predetermined binding EC80 (typically 30 to 10 nM) without washing. fifty (50) μL of bn-peptide/NA-HRP tracer was added to each well and incubated at 4° C. for 45 mins.

[4] = target: T5, cynomolgus monkey IL-2Rβ subunit (cynomolgus monkey); assay: competition ELISA, peptide tracer
T5 construct: Bought protein; also called cyno-IL-2Rβ subunit
T5 sequence (Q38J85 whole entry): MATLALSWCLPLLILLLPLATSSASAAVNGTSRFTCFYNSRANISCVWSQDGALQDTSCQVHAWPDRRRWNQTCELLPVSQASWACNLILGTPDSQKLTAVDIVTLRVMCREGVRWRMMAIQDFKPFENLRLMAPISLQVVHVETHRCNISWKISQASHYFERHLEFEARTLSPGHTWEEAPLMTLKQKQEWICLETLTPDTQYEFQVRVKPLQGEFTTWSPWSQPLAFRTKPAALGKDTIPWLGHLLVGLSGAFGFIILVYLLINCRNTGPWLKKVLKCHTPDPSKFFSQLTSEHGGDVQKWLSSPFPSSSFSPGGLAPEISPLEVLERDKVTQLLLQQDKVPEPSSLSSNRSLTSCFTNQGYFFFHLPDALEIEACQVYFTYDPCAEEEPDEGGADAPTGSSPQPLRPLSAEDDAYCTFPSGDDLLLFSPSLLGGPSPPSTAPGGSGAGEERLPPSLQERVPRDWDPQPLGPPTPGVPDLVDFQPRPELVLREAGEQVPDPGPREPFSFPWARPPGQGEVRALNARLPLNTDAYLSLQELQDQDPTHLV
Method: as §1, §2, §3

[5] = target: T3, human IL-2Rγc (CD132 protein, Fc Tag) …; assay: competition ELISA, peptide tracer
Method: as §1, §2, §3

[6] = target: T2, human IL-2Rβ (CD122 protein, Fc Tag) …; assay: competition ELISA, peptide tracer
Method: as §1, §2, §3

Row | Binder | EC50 (STAT5, NK92) (hu-IL-2R) [µM] | IC50 [1] [µM] | IC50 [2] [µM] | IC50 [3] [µM] | IC50 [4] [µM] | IC50 [5] [µM] | IC50 [6] [µM]
1 | {PEG 40 kDa branched-PEG10}-GGWYPCWMAQLGELCDLDGGGGSGGVVCQDWEGVELCWQGG (not fully specified; printed as -GGWYPCWMAQLGELCDLDGGGGSGGVVCQDWEGVELCWQGG-; cysteine pairing not given here) [PEG-IL-2Rβγc ligand construct PEG-1] | 0.0058 | 0.031 | 0.026 | – | – | – | –
2 | {PEG 40 kDa branched-PEG20′}-GGWYPCWMAQLGELCDLDGGGGSGGVVCQDWEGVELCWQGG (cysteine pairing not given here; reading uncertain) [PEG-IL-2Rβγc ligand construct PEG-7] | 0.0083 | 0.0034 | 0.0017 | – | – | – | –
3 | PEG-IL-2Rβγc ligand construct PEG-3 (cysteine pairing not given here) peptide: {PEG 40 kDa branched}-APAPAPAPAPAPGGWYPCWMAQLGELCDLDGGGGSGGVVCQDWEGVELCWQGG | 0.0023 | 0.014 | 0.0043 | – | – | – | –
4 | SEQ ID NO 4178 (peptide) peptide: GGELLVDCFKVKVGELCDLFFGPAPAPAPAPAPAPAPAGVVCQDWEGVELCWQGG | – | – | – | < 100 | < 100 | < 100 | < 100
5 | GGWYPCWMAQLGELCDLDGGGGSGGVVCQDWEGVELCWQGG-{PEG10-PEG 40 kDa branched} (cysteine pairing not given here) [PEG-IL-2Rβγc ligand construct PEG-4] | 0.024 | 0.0085 | 0.0037 | – | – | – | –
6 | SEQ ID NO 4177 (peptide) peptide: GGELLVDCFKVKVGELCDLFFGPAPAPAPAPAPAPAPAPAPAPAVVCQDWEGVELCWQGG | – | – | – | < 100 | < 100 | < 100 | < 100
7 | IL-2Rβγc ligand having SEQ ID NO: 4171 (peptide) peptide: GGGELLVDCFKVKVGELCDLFFGPAPAPAPAPAPAPAPAGVVCQDWEGVELCWQGG | – | – | – | < 100 | < 100 | < 100 | < 100
8 | {PEG 20 kDa linear-PEG20′}-GGWYPCWMAQLGELCDLDGGGGSGGVVCQDWEGVELCWQGG (cysteine pairing not given here; reading uncertain) [PEG-IL-2Rβγc ligand construct PEG-5] | 0.001 | 0.033 | 0.0041 | – | – | – | –
9 | GGWYPCWMAQLGELCDLDGGGGSGGVVCQDWEGVELCWQGG-{PEG4′-PEG 40 kDa branched} (cysteine pairing not given here) [PEG-IL-2Rβγc ligand construct PEG-2] | 0.273 | 0.008 | 0.69 | – | – | – | –
10 | IL-2Rβγc ligand BGL22 (cysteine pairing not given here; also: two chains joined by non-peptidyl linker L11 (click chemistry), Made by click chemistry) peptide 1: GGRYVHDCFIAQVGALCDLFLHPAPAPAPAPAPAPAPA peptide 2: VVCQDWEGVELCWQGG | – | – | – | < 100 | < 100 | < 100 | < 100
11 | IL-2Rβγc ligand BGL23 (cysteine pairing not given here; also: two chains joined by non-peptidyl linker L11 (click chemistry), Made by click chemistry) peptide 1: GGRYVHACFIAQVGDLCDLFLHPAPAPAPAPAPAPAPA peptide 2: VVCQDWEGVELCWQGG | – | – | – | < 100 | < 100 | < 100 | < 100
12 | IL-2Rβγc ligand BGL24 (cysteine pairing not given here; also: two chains joined by non-peptidyl linker L11 (click chemistry), Made by click chemistry) peptide 1: GGRYVHDCFIAQVGDLCDLALHPAPAPAPAPAPAPAPA peptide 2: VVCQDWEGVELCWQGG | – | – | – | < 100 | < 100 | < 100 | < 100
13 | SEQ ID NO 4170 (peptide) peptide: GGGELLVDCFKVKVGELCDLFFGGGGGSGGGGSGGGGSGGGGSGGVVCQDWEGVELCWQGG | – | – | – | < 100 | < 100 | < 100 | < 100
14 | {PEG 40 kDa linear-PEG20′}-GGWYPCWMAQLGELCDLDGGGGSGGVVCQDWEGVELCWQGG (cysteine pairing not given here; reading uncertain) [PEG-IL-2Rβγc ligand construct PEG-6] | 0.0016 | 0.017 | 0.0034 | – | – | – | –

Further lines, results first:

Row | EC50 (STAT5, NK92) (hu-IL-2R) [µM] | IC50 [1] [µM] | IC50 [2] [µM] | IC50 [3] [µM] | IC50 [4] [µM] | IC50 [5] [µM] | IC50 [6] [µM] | Binder
15 | – | – | – | < 100 | < 100 | < 100 | < 100 | SEQ ID NO 4183 (peptide) peptide: GGRYVHDCFIAQAGDLCDLFLHPAPAPAPAPAPAPAPAGVVCQDWEGVELCWQGG
16 | – | – | – | < 100 | < 100 | < 100 | < 100 | SEQ ID NO 4184 (peptide) peptide: GGRYVHDCFIAQVGDACDLFLHPAPAPAPAPAPAPAPAGVVCQDWEGVELCWQGG
17 | – | – | – | < 100 | < 100 | < 100 | < 100 | SEQ ID NO 4185 (peptide) peptide: GGRYVHDCFIGQVGDLCDLFLHPAPAPAPAPAPAPAPAGVVCQDWEGVELCWQGG
18 | – | – | – | < 100 | < 100 | < 100 | < 100 | VDCFKVKVGELCDLFFGPAPAPAPAPAPAPAPAGVVCQDWEGVELCWQ [SEQ ID NO 4180]
19 | – | – | – | < 100 | < 100 | < 100 | < 100 | SEQ ID NO 4181 (peptide) peptide: GGELLVDCFRVRVGELCDLFFGPAPAPAPAPAPAPAPAGVVCQDWEGVELCWQGG
20 | – | – | – | < 100 | < 100 | < 100 | < 100 | LVDCFKVKVGELCDLFFGPAPAPAPAPAPAPAPAGVVCQDWEGVELCWQ [SEQ ID NO 4179]
